The series concerns the molecule itself. Nature of the series: Western blot under non-reducing, non-heated conditions; self-association. (In general: Immunoblotting shows a protein as a band on a membrane.)

B1: rice-derived CTB.OspA fusion protein (other)
chain: TPQNITDLCAEYHNTQIHTLNDKIFSYTESLAGKREMAIITFKNGATFQVEVPGSQHIDSQKKAIERMKDTLRIAYLTEAKVEKLCVWNNKTPHAIAAISMANPGPGPGCKQNVSSLDEKNSVSVDLPGEMKVLVSKEKNKDGKYDLIATVDKLELKGTSDKNNGSGVLEGVKADKSKVKLTISDDLGQTTLEVFKEDGKTLVSKKVTSKDKSSTEEKFNEKGEVSEKIITRADGTRLEYTGIKSDGSGKAKEVLKGYVLEGTLTAEKTTLVVKEGTVTLSKNIAKSGEVSVELNDADSSAATKKTAAWNSGTSTLTITVNSKKTKDLVFTKENTITVQQYDSAGTKLEGSAVEITKLDEIKNALK
notes: also called OspA-CTB fusion protein; rice CTB.OspA fusion protein
Take B1: the binding result was “binds”.

The values above are taken from US20160213766A1 (VENTRIA BIOSCIENCE, published 2016).
